B1: cdFLDZ: enzyme derived from Clostridium difficile, SEQ ID NO: 11, expressed in E. coli (protein)
chain: MKISSMFTPIRIGSMTVPNRFVVPPMGNNFANTDGTLSETSKAYYLERALGGFGLITIESSVVDKKAKGGPRKPCLYDDSTIDSFKNVIDACHDAGSKVSIQLQHAGSEGNEKVAGHPLKAASAIPASNGRNTPLAITTEEIYELIESYGDAALRAQKAGADAVEVHCAHGYLVSSFISQRTNKRVDEFGGCFENRMRLPRLIIENIRKKVGNSLAILCRINSTDDVPGGIDVHDSSVIAAYLEDCGIDGLHVSRSIHIHDEYMWAPTTLHAGFSAELVTEIKKAVSIPVITVGRYTEPQFAELMVRQGRCDLVAFGRQSLADPEMPNKAKNGKLDEMIPCIACLQGCVPNMFQGKPIACLANPILGHEAELKPAEISKEVLVVGGGVGGMLAAWVCAKRGHNVTLVEKSEVLGGQMRLAAYPPGKGDITNLVRSYISKCNQYGVKICTNTEATVELIKEKSPDVVIIATGATPLVLPIPGINDSGLIHAVDLLDGKKSCGKKVLVVGGGMVGCEVAAFLGEQEHEVTVIELREEVGADVISEHRKFLMNDFENYNIHTITGAKVSKFYDDGVDYLLTDGTEHDLKGFDSVVLAMGSRNYDPLSEVIKEVVKETYIVGDAVKARRALDATKEAFEVALNI
modifications: Clostridium difficile; cdFLDZ Polypeptide
B2: RgPAL: phenylalanine ammonia-lyase derived from yeast Rhodotorula glutinis JN-1, SEQ ID NO: 5, expressed in E. coli (protein, listed as Rhodotorula glutinis)
chain: MAPSVDSIATSVANSLSNGLAGDLRKKTSGAGSLLPTTETTQIDIVERILADAGATDQIKLDGYTLTLGDVVGAARRGRTVKVADSPQIREKIDASVEFLRTQLDNSVYGVTTGFGGSADTRTEDAISLQKALLEHQLCGVLPTSMDGFALGRGLENSLPLEVVRGAMTIRVNSLTRGHSAVRIVVLEALTNFLNHGITPIVPLRGTISASGDLSPLSYIAASITGHPDSKVHVDGQIMSAQEAIALKGLQPVVLGPKEGLGLVNGTAVSASMATLALTDAHVLSLLAQANTALTVEAMVGHAGSFHPFLHDVTRPHPTQIEVARNIRTLLEGSKYAVHHETEVKVKDDEGILRQDRYPLRCSPQWLGPLVSDMIHAHSVLSLEAGQSTTDNPLIDLENKMTHHGGAFMASSVGNTMEKTRLAVALMGKVSFTQLTEMLNAGMNRALPSCLAAEDPSLSYHCKGLDIAAAAYTSELGHLANPVSTHVQPAEMGNQAINSLALISARRTAEANDVLSLLLATHLYCVLQAVDLRAMEFEHTKEFEPMVTDLLKQHFGALATADVEDKVRKSIYKRLQQNNSYDLEQRWHDTFSVATGAVVEALAGNEVSLASLNAWKVACAEKAIALTRTVRDSFWAAPSSASPALKYLSPRTRILYSFVREDVGVKARRGDVYLGKQEVTIGTNVSRIYEAIKDGRIAPVLVKMMA
modifications: RgPAL Polypeptide
B3: scHbn1: enzyme (nitroreductase) derived from Saccharomyces cerevisiae, SEQ ID NO:9, expressed in E. coli (protein, listed as Saccharomyces cerevisiae)
chain: MSAVATYLKTLTARRTIYALKPELPGEITINDIQSVVQTIIKETPTAFNSQPNRAVILTGETHKKVWDEVTKAIESPAGQKRPASARDEAFGSVIFFTDDKVTEKLKADFPAYAAAFPSFADHTSGAAQINSWVALEAMGLGGHLQHYNGYIKAALPSKIPESWTVQAQLVFGTPAAPPGEKTYIKNDVEIFN
modifications: scHbn1 Polypeptide
B4: nfsA: nitroreductase derived from Escherichia coli, SEQ ID NO: 13, overexpressed in E. coli (protein, listed as Escherichia coli)
chain: MTPTIELICGHRSIRHFTDEPISEAQREAIINSARATSSSSFLQCSSIIRITDKALREELVTLTGGQKHVAQAAEFWVFCADFNRHLQICPDAQLGLAEQLLLGVVDTAMMAQNALIAAESLGLGGVYIGGLRNNIEAVTKLLKLPQHVLPLFGLCLGWPADNPDLKPRLPASILVHENSYQPLDKGALAQYDEQLAEYYLTRGSNNRRDTWSDHIRRTIIKESRPFILDYLHKQGWATR
modifications: nfsA Polypeptide
B5: scFrm2: enzyme (nitroreductase) derived from Saccharomyces cerevisiae, SEQ ID NO:7, expressed in E. coli (protein, listed as Saccharomyces cerevisiae)
chain: MSPTGNYLNAITNRRTIYNLKPELPQGVGLDDVKRTVHVILKNTPTAFNSQVNRAVIIVGDTHKRIWDAVASAMPTAEAKKRPESCRDEAYGSVIFFTDEGPTEKLQRDFPALAAAFPTCAAHTTGAVQIQSWTALELLGLGANLQHYNDYVKSALPQDVPIAWTVQSQLVFGVPTALPEEKTFINNVINVYH
modifications: scFrm2 Polypeptide
B6: nfsB: nitroreductase derived from Escherichia coli, SEQ ID NO:15, overexpressed in E. coli (protein, listed as Escherichia coli)
chain: MDIISVALKRHSTKAFDASKKLTPEQAEQIKTLLQYSPSSTNSQPWHFIVASTEEGKARVAKSAAGNYVFNERKMLDASHVVVFCAKTAMDDVWLKLVVDQEDADGRFATPEAKAANDKGRKFFADMHRKDLHDDAEWMAKQVYLNVGNFLLGVAALGLDAVPIEGFDAAILDAEFGLKEKGYTSLVVVPVGHHSVEDFNATLPKSRLPQNITLTEV
modifications: nfsB Polypeptide

Key:
[1] = Resting-cell reaction of scFrm2-, scHbn1-, cdFLDZ-producing E. coli, 4-nitrocinnamic acid to 4-aminocinnamic acid; format: cell-based, Escherichia coli; details: resting cells, 2.5 mM 4-nitrocinnamic acid, 30° C., 12 hours, pH 7.0; versus control E. coli
Experimental: Each of the scFrm2-, scHbn1-, and cdFLDZ-producing Escherichia coli strains were precultured using 3 mL of LB medium containing 30 mg/L kanamycin sulfate at 28° C. for 16 hours with shaking at 300 rpm. 1 mL of this preculture liquid was inoculated to 100 mL of LB medium containing 30 mg/L kanamycin sulfate, cultured at 30° C. for 4 hours with shaking at 120 rpm, and after 0.1 mM IPTG was added, incubated further at 20° C. for 12 hours. The obtained bacterial cells were washed twice with a reaction buffer (100 mM potassium dihydrogen phosphate (KH2PO4), 1 mM magnesium sulfate (MgSO4), 0.5 mM thiamine chloride, pH 7.0).
The resting cells thus obtained were suspended in a reaction buffer containing 2.5 mM 4-nitrocinnamic acid, and reacted at 30° C. for 12 hours with shaking at 300 rpm. After the reaction, the reaction supernatant was collected to quantify 4-aminocinnamic acid. The supernatant was transferred to a centrifuge tube, collected by centrifugation, and the reaction product was quantified using the above HPLC.
(§1) The same experiment was also performed using the host Escherichia coli as a control.

[2] = Deammonase activity of purified enzymes by absorptiometry; format: biochemical; details: purified recombinant enzyme 2 mg/mL, 50 mM Tris-HCl pH 8.6, 0.3 to 9.6 mM substrate, 380 nm, 10 minutes
Experimental: • Apparatus: BECKMAN COULTER DU800 UV/Vis Spectrophotometer • Amount of enzyme: 2mg/mL • Buffer solution: 50mM Tris-HCl buffer (pH=8.6) • Concentration of substrate: 0.3mM to 9.6mM • Volume: 200μL • Measurement wavelength: From 4-nitrophenylalanine to 380 nm 4-nitrocinnamic acid: From phenylalanine to 305 nm cinnamic acid: • Measurement period: 10 minutes • Measurement temperature: 25° C.
Each of the CamPAL-, LiePAL-, and RgPAL-producing Escherichia coli strains was inoculated to 5 mL of LB medium containing 30 mg/L kanamycin sulfate, and cultured at 28° C. for 16 hours (hereinafter also may be referred to as “preculture”). […]
The enzyme activity was measured and quantified by measuring the absorbance of the reaction product at the absorption wavelength for 10 minutes using an absorptiometer.
Specifically, regarding the deammonase activity for phenylalanine, 2 mg/mL of each of the above enzymes was added to 50 mM Tris-HCl buffer (pH=8.6) containing 0.3 to 9.6 mM phenylalanine to cause reaction, and the change in absorbance at a wavelength of 305 nm resulting from the formation of cinnamic acid was measured for 10 minutes. […]

[3] = Resting-cell reaction of PAL-producing E. coli, 4-nitrophenylalanine to 4-nitrocinnamic acid; format: cell-based, Escherichia coli; details: resting cells, 24 hours, 28° C., pH 8.5, 20 mM 4-nitrophenylalanine; versus control Escherichia coli
Experimental: The CamPAL-, LiePAL-, and RgPAL-producing Escherichia coli strains mentioned above were precultured using 3 mL of LB medium containing 40 mg/L kanamycin sulfate at 28° C. for 16 hours with stirring at 300 rpm. 1 mL of this pre-cultured liquid was inoculated to 100 mL of LB medium containing 40 mg/L of kanamycin sulfate, cultured at 30° C. for 4 hours with shaking at 120 rpm, and after the addition of 0.5 mM of IPTG, incubated further for 20 hours. The obtained bacterial cells were washed twice with a reaction buffer (100 mM Tris-HCl buffer, pH 8.5).
The resting cells obtained were suspended in a reaction buffer and reacted at 28° C. with shaking at 300 rpm. 20 mM of 4-nitrophenylalanine was added to the medium every 24 hours while the reaction was continued. The reaction supernatant was periodically collected to quantify 4-nitrophenylalanine and 4-nitrocinnamic acid.
The supernatant was transferred to a centrifuge tube, collected by centrifugation, and the reaction product was quantified using high performance liquid chromatography (HPLC).
as §1

[4] = Enzyme activities of nfsA and nfsB in cell reactions, 4-nitrocinnamic acid to 4-aminocinnamic acid; format: cell-based, Escherichia coli; details: 2 g/L 4-nitrocinnamic acid, 2% glycerol, pH 8.0, 37° C., 18 hours
Experimental: Each of the nfsA- and nfsB-producing Escherichia coli strains was precultured using 5 mL of LB medium containing 40 mg/L of streptomycin sulfate at 28° C. for 16 hours with shaking at 300 rpm. 1 mL of this pre-cultured solution was inoculated to 100 mL of TB medium containing 80 mg/L streptomycin sulfate, cultured at 30° C. for 4 hours with shaking at 120 rpm. 0.1 mM IPTG was added, and the culture was further incubated at 30° C. for another 18 hours.
The pH of the culture medium containing the obtained bacterial cells was adjusted to 8.0 by addition of 2N NaOH. 2 g/L of 4-nitrocinnamic acid and 2% final concentration of glycerol were suspended in this culture medium, and the reaction was carried out at 37° C. for 18 hours with shaking at 120 rpm. After the reaction, the reaction solution supernatant was collected to quantify 4-aminocinnamic acid. Specifically, the supernatant was transferred to a centrifuge tube, collected by centrifugation, and the reaction product was quantified using the above HPLC.
The same experiment was also carried out using the host Escherichia coli as a control.

| Molecule | amount of 4-aminocinnamic acid in the medium supernatant [1] | 4-aminocinnamic acid converted from 4-nitrocinnamic acid [4] [g/L] | further results |
| --- | --- | --- | --- |
| B1 | remarkably increased as compared with the control E. coli | – | – |
| B2 | – | – | capacity to convert 4-nitrophenylalanine to 4-nitrocinnamic acid [2]: have a capacity to covert 4-nitrophenylalanine to 4-nitrocinnamic acid; amount of 4-nitrocinnamic acid in the reaction supernatant [3]: significantly higher than that of the control Escherichia coli |
| B3 | remarkably increased as compared with the control E. coli | – | – |
| B4 | – | 0.26 | – |
| B5 | remarkably increased as compared with the control E. coli | – | – |
| B6 | – | 0.76 | – |
